From article PMC9482650, “Quantitative fragmentomics allow affinity mapping of interactomes” (Nature Communications, 2022)
One block for each binder: values may come before it.

Columns and labels:
Assay in all cases: holdup assay
Design in all cases: key: below the threshold = too weak to quantify, mostly under pKd 3.1 to 4
NHERF2_2, Q15599 = target: NHERF2_2, Q15599
PDZRN4_1, Q6ZMN7 = target: PDZRN4_1, Q6ZMN7
LIN7C, Q9NUP9 = target: T1, LIN7C, Q9NUP9
T1 sequence (Q9NUP9 88-185, limits assumed, looked up): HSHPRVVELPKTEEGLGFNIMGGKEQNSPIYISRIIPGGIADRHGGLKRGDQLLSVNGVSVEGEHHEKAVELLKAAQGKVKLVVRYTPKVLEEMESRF

SNTG1, Q9NSN8 = target: T2, SNTG1, Q9NSN8
T2 sequence (Q9NSN8 52-150, limits assumed, looked up): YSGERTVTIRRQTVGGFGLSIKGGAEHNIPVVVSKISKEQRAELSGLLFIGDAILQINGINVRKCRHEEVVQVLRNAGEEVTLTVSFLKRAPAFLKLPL

LNX1_1, Q8TBB1 = target: LNX1_1, Q8TBB1
Chain of LNX1_1, Q8TBB1 (Q8TBB1 261-371): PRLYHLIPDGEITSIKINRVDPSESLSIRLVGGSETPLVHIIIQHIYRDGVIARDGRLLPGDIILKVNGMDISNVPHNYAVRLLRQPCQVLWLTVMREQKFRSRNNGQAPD

FRMPD3, Q5JV73 = target: FRMPD3, Q5JV73
Chain of FRMPD3, Q5JV73 (Q5JV73 12-100): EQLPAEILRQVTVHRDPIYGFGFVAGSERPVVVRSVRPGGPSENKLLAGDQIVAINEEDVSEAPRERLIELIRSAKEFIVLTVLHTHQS

DLG4_2, P78352 = target: DLG4_2, P78352
Chain of DLG4_2, P78352 (P78352 155-259): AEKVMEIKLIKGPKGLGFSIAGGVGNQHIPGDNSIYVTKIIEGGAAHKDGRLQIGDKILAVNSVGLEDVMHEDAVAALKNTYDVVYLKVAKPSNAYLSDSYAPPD

NHERF4_2, Q86UT5 = target: NHERF4_2, Q86UT5
Chain of NHERF4_2, Q86UT5 (Q86UT5 220-308): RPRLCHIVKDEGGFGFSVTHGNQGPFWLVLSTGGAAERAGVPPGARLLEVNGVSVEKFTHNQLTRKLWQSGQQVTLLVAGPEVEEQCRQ

NHERF3_4, Q5T2W1 = target: T3, NHERF3_4, Q5T2W1
T3 sequence (Q5T2W1 373-468, limits assumed, looked up): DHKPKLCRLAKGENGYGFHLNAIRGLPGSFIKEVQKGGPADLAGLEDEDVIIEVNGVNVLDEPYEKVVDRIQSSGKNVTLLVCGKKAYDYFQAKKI

DFNB31_3, Q9P202 = target: T4, DFNB31_3, Q9P202
T4 sequence (Q9P202 811-907, limits assumed, looked up): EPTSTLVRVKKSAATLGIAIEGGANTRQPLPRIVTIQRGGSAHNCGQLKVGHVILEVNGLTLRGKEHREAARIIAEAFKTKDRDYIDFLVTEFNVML

GORASP1, Q9BQQ3 = target: GORASP1, Q9BQQ3
Chain of GORASP1, Q9BQQ3 (Q9BQQ3 1-208): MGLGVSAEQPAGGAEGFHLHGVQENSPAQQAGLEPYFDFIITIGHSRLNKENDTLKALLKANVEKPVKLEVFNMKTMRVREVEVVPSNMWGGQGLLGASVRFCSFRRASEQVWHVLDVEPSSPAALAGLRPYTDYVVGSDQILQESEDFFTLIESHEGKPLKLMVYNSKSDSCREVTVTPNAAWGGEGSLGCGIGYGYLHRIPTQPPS

NHERF3_1, Q5T2W1 = target: T5, NHERF3_1, Q5T2W1
T5 sequence (Q5T2W1 4-100, limits assumed, looked up): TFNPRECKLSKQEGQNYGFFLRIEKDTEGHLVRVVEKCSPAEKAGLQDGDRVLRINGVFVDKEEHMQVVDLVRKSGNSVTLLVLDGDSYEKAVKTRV

SCRIB_1, Q14160 = target: SCRIB_1, Q14160
Chain of SCRIB_1, Q14160 (Q14160 718-814): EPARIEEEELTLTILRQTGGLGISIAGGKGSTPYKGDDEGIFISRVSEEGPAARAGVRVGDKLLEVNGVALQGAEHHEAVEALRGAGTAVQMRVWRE

MAGI2_3, Q86UL8 = target: MAGI2_3, Q86UL8
Chain of MAGI2_3, Q86UL8 (Q86UL8 600-682): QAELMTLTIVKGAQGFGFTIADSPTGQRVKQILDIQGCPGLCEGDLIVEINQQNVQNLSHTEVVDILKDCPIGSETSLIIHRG

SYNJ2BP, P57105 = target: T6, SYNJ2BP, P57105
T6 sequence (P57105 8-110, limits assumed, looked up): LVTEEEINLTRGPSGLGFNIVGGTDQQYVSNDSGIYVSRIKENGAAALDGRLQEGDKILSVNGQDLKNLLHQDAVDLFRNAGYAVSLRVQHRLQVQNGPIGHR

MAST1, Q9Y2H9 = target: MAST1, Q9Y2H9
Chain of MAST1, Q9Y2H9 (Q9Y2H9 962-1065): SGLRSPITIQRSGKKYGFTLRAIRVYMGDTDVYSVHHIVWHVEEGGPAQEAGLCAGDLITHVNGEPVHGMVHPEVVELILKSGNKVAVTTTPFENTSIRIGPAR

SHANK1, Q9Y566 = target: T7, SHANK1, Q9Y566
T7 sequence (Q9Y566 658-767, limits assumed, looked up): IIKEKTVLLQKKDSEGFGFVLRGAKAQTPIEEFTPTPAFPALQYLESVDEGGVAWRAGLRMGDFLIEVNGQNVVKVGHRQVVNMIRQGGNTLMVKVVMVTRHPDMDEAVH

PTPN3, P26045 = target: PTPN3, P26045
Chain of PTPN3, P26045 (P26045 505-587): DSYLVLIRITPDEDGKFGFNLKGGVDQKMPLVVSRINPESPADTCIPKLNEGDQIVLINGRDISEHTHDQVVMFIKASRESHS

Inadl_8, Q8NI35 = target: Inadl_8, Q8NI35
Chain of Inadl_8, Q8NI35 (Q8NI35 1425-1530): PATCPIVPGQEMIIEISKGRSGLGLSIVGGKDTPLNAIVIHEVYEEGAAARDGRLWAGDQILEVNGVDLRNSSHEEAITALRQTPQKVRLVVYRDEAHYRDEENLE

LNX2_2, Q8N448 = target: T8, LNX2_2, Q8N448
T8 sequence (Q8N448 334-432, limits assumed, looked up): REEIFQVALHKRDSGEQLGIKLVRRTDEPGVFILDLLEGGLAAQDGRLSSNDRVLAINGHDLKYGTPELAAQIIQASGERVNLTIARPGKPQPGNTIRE

GORASP2, Q9H8Y8 = target: GORASP2, Q9H8Y8
DLG4_1, P78352 = target: DLG4_1, P78352
Chain of DLG4_1, P78352 (P78352 62-152): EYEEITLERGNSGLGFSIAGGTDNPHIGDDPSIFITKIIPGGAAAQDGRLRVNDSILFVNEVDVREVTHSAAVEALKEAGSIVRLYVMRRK

TJP1_2, Q07157 = target: TJP1_2, Q07157
Chain of TJP1_2, Q07157 (Q07157 181-274): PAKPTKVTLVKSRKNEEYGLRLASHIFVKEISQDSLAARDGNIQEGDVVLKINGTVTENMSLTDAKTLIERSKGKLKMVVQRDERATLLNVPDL

MPP2, Q14168 = target: T9, MPP2, Q14168
T9 sequence (Q14168 180-250, limits assumed, looked up): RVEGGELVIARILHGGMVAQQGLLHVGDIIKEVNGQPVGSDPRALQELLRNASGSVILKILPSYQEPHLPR

RHPN1, Q8TCX5 = target: T10, RHPN1, Q8TCX5
T10 sequence (Q8TCX5 508-602, limits assumed, looked up): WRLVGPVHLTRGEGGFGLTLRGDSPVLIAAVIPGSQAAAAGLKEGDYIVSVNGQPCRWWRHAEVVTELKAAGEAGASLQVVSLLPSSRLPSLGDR

DLG3_2, Q92796 = target: T11, DLG3_2, Q92796
T11 sequence (Q92796 221-321, limits assumed, looked up): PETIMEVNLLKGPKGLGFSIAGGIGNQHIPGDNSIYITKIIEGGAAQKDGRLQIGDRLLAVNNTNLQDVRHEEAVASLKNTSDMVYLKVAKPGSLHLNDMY

MAGI1_2, Q96QZ7 = target: MAGI1_2, Q96QZ7
Chain of MAGI1_2, Q96QZ7 (Q96QZ7 456-580): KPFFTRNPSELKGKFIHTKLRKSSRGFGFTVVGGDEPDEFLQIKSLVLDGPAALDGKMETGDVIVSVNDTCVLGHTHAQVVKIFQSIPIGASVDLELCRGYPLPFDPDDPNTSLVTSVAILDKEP

[1] = plain residues with an end cap or a label only (N-terminal biotin on a linker: ado-ado)
[2] = plain residues with an end cap or a label only (N-terminal biotin on a linker: ttds)

Chain of NHERF2_2, Q15599 (Q15599 142-238): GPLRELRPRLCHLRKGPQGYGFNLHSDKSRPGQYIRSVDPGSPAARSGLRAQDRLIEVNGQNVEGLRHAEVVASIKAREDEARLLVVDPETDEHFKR
Chain of PDZRN4_1, Q6ZMN7 (Q6ZMN7 213-318): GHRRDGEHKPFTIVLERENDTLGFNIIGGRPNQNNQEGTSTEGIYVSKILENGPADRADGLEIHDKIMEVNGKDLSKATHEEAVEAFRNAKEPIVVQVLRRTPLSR

pKd (NHERF2_2, Q15599; [1]): below the threshold | pKd (PDZRN4_1, Q6ZMN7; [1]): below the threshold | pKd (LIN7C, Q9NUP9; [1]): 3.68 | pKd (SNTG1, Q9NSN8; [1]): below the threshold | pKd (LNX1_1, Q8TBB1; [1]): below the threshold | pKd (FRMPD3, Q5JV73; [1]): below the threshold | pKd (DLG4_2, P78352; [1]): 4.64 | pKd (NHERF4_2, Q86UT5; [1]): below the threshold | pKd (NHERF3_4, Q5T2W1; [1]): below the threshold | pKd (DFNB31_3, Q9P202; [1]): 3.67 | pKd (GORASP1, Q9BQQ3; [1]): 3.53 | pKd (NHERF3_1, Q5T2W1; [1]): 4.54 | pKd (SCRIB_1, Q14160; [1]): 3.61 | pKd (MAGI2_3, Q86UL8; [1]): 3.51 | pKd (SYNJ2BP, P57105; [1]): 4.18 | pKd (MAST1, Q9Y2H9; [1]): 4.6 | pKd (SHANK1, Q9Y566; [1]): below the threshold | pKd (PTPN3, P26045; [1]): 4.49 | pKd (Inadl_8, Q8NI35; [1]): 3.49 | pKd (LNX2_2, Q8N448; [1]): below the threshold | pKd (GORASP2, Q9H8Y8; [1]): 4.19 | pKd (DLG4_1, P78352; [1]): 4.25 | pKd (TJP1_2, Q07157; [1]): below the threshold | pKd (MPP2, Q14168; [1]): below the threshold | pKd (RHPN1, Q8TCX5; [1]): 4.5 | pKd (DLG3_2, Q92796; [1]): 4.68 | pKd (MAGI1_2, Q96QZ7; [1]): 3.98
B1: NCBP2L, A6PVI3 (peptide)
chain: RGGFGRQTQI

pKd (NHERF2_2, Q15599; [2]): 4.5 | pKd (PDZRN4_1, Q6ZMN7; [2]): 4.24 | pKd (LIN7C, Q9NUP9; [2]): 3.41 | pKd (SNTG1, Q9NSN8; [2]): 3.72 | pKd (LNX1_1, Q8TBB1; [2]): 4.03 | pKd (FRMPD3, Q5JV73; [2]): 3.53 | pKd (DLG4_2, P78352; [2]): 3.97 | pKd (NHERF4_2, Q86UT5; [2]): 3.21 | pKd (NHERF3_4, Q5T2W1; [2]): 4.69 | pKd (DFNB31_3, Q9P202; [2]): 4.25 | pKd (GORASP1, Q9BQQ3; [2]): 3.93 | pKd (NHERF3_1, Q5T2W1; [2]): 4.8 | pKd (SCRIB_1, Q14160; [2]): 5.54 | pKd (MAGI2_3, Q86UL8; [2]): 3.47 | pKd (SYNJ2BP, P57105; [2]): 4.72 | pKd (MAST1, Q9Y2H9; [2]): 4 | pKd (SHANK1, Q9Y566; [2]): 4.91 | pKd (PTPN3, P26045; [2]): 4.48 | pKd (Inadl_8, Q8NI35; [2]): 3.8 | pKd (LNX2_2, Q8N448; [2]): below the threshold | pKd (GORASP2, Q9H8Y8; [2]): 4.55 | pKd (DLG4_1, P78352; [2]): 3.78 | pKd (TJP1_2, Q07157; [2]): below the threshold | pKd (MPP2, Q14168; [2]): below the threshold | pKd (RHPN1, Q8TCX5; [2]): 4.46 | pKd (DLG3_2, Q92796; [2]): 3.97 | pKd (MAGI1_2, Q96QZ7; [2]): 4.83
B2: ASIC3, Q9UHC3 (peptide)
chain: HRTCYLVTQL

pKd (NHERF2_2, Q15599; [2]): below the threshold | pKd (PDZRN4_1, Q6ZMN7; [2]): below the threshold | pKd (LIN7C, Q9NUP9; [2]): below the threshold | pKd (SNTG1, Q9NSN8; [2]): below the threshold | pKd (LNX1_1, Q8TBB1; [2]): below the threshold | pKd (FRMPD3, Q5JV73; [2]): below the threshold | pKd (DLG4_2, P78352; [2]): below the threshold | pKd (NHERF4_2, Q86UT5; [2]): below the threshold | pKd (NHERF3_4, Q5T2W1; [2]): below the threshold | pKd (DFNB31_3, Q9P202; [2]): below the threshold | pKd (GORASP1, Q9BQQ3; [2]): below the threshold | pKd (NHERF3_1, Q5T2W1; [2]): below the threshold | pKd (SCRIB_1, Q14160; [2]): below the threshold | pKd (MAGI2_3, Q86UL8; [2]): below the threshold | pKd (SYNJ2BP, P57105; [2]): 3.55 | pKd (MAST1, Q9Y2H9; [2]): below the threshold | pKd (SHANK1, Q9Y566; [2]): below the threshold | pKd (PTPN3, P26045; [2]): below the threshold | pKd (Inadl_8, Q8NI35; [2]): below the threshold | pKd (LNX2_2, Q8N448; [2]): below the threshold | pKd (GORASP2, Q9H8Y8; [2]): below the threshold | pKd (DLG4_1, P78352; [2]): 3.54 | pKd (TJP1_2, Q07157; [2]): below the threshold | pKd (MPP2, Q14168; [2]): below the threshold | pKd (RHPN1, Q8TCX5; [2]): below the threshold | pKd (DLG3_2, Q92796; [2]): below the threshold | pKd (MAGI1_2, Q96QZ7; [2]): below the threshold
B3: CBP, Q92793 (peptide)
chain: TGDTLEKFVEGL
